According to patent US8987424B2, “CA6 antigen-specific cytotoxic conjugate and methods of using the same” (ImmunoGen, Inc., priority 2003, dated 2015):

Legend:
[1] = test system: A375 cells (antigen negative); test: Clonogenic assay; assay type: cell-based, human; conditions: 3×10^−9 M, highest concentration tested
Procedure: (§1) The cytotoxicity of maytansinoid conjugated muDS6 antibody was examined using 2 different assay formats in various DS6 positive cell lines. Clonogenic assays were conducted where cells (1000-2500 cells/well) were plated on 6-well plates in 2 ml of conjugate diluted in culture media. […] The wells were washed with PBS and the colonies were stained with a 1% w/v crystal violet/10% v/v formaldehyde/PBS solution. Unbound stain was then washed thoroughly from the wells with distilled water, and the plates were allowed to dry. The colonies were counted using a Leica StereoZoom 4 dissecting microscope.
(§2) Plating efficiency (PE) was calculated as the number of colonies/number of cells plated. Surviving fraction was calculated as PE of treated cells/PE of non-treated cells. The IC50 concentration was determined by graphing the surviving fraction of cells vs. the molar concentration of the conjugate.

pancreatic cell lines = test: Clonogenic assay; assay type: cell-based, human
Procedure: as §1, §2

[2] = test system: cervical cell lines (HeLa, KB, and WISH); test: Clonogenic assay; assay type: cell-based, human
Procedure: as §1, §2

SW1990 cells = test: Flow cytometry binding assay; set-up: species or system human
Procedure: (§3) Flow cytometric analysis was used to localize the DS6 epitope, CA6, to the cell surface. Human cell lines were obtained from the American Type Culture Collection (ATCC) with the exception of OVCAR5 (Kearse et al., Int. J. Cancer 88(6):866-872 (2000)), OVCAR8 and IGROV1 cells (M. Seiden, Massachusetts General Hospital). All cells were grown in RPMI 1640 supplemented with 4 mM L-glutamine, 50 U/ml penicillin, 50 μg/ml streptomycin (Cambrex Bio Science, Rockland, Me.) and 10% v/v fetal bovine serum (Atlas Biologicals, Fort Collins, Colo.), referred hereafter as culture media. Cells were maintained in a 37° C., 5% CO2 humidified incubator.
(§4) Cells ([…]) were incubated, on ice for 3-4 h, with serially diluted concentrations of the DS6 antibody prepared in FACS buffer (2% goat serum, RPMI) into 96-well plates. The cells were spun down in a table top centrifuge at 1500 rpm for 5 min at 4° C. After removing the media, the wells were then refilled with 150 μl of FACS buffer. The wash step was then repeated. FITC-labeled goat anti-mouse IgG (Jackson Immunoresearch) was diluted 1:100 to FACS buffer and incubated with the cells for 1 h on ice. The plate was covered in foil to prevent photobleaching of the signal. After two washes, the cells were fixed with 1% formaldehyde and analyzed on a flow cytometer.

MDA-MB-231 cells = test: Flow cytometry binding assay; set-up: species or system human
Procedure: as §3, §4

MDA-MB-468 cells = test: Flow cytometry binding assay; set-up: species or system human
Procedure: as §3, §4

T98G cells = test: Flow cytometry binding assay; set-up: species or system human
Procedure: as §3, §4

OVCAR5 cells = test: Flow cytometry binding assay; set-up: species or system human
Procedure: as §3, §4

HPAC cells = test: Flow cytometry binding assay; set-up: species or system human
Procedure: as §3, §4

KLE cells = test: Flow cytometry binding assay; set-up: species or system human
Procedure: as §3, §4

SK-OV-3 cells = test: Flow cytometry binding assay; set-up: species or system human
Procedure: as §3, §4

BT-483 cells = test: Flow cytometry binding assay; set-up: species or system human
Procedure: as §3, §4

Hs766T cells = test: Flow cytometry binding assay; set-up: species or system human
Procedure: as §3, §4

BT-20 cells = test: Flow cytometry binding assay; set-up: species or system human
Procedure: as §3, §4

MDA-MB-157 cells = test: Flow cytometry binding assay; set-up: species or system human
Procedure: as §3, §4

T-47D cells = test: Flow cytometry binding assay; set-up: species or system human
Procedure: as §3, §4

Colo205 cells = test: Flow cytometry binding assay; set-up: species or system human; conditions: Colo205, antigen negative cell line
Procedure: as §3, §4

WISH cells = test: Flow cytometry binding assay; set-up: species or system human
Procedure: as §3, §4

HPAF-II cells = test: Flow cytometry binding assay; set-up: species or system human
Procedure: as §3, §4

CAMA-1 cells = test: Flow cytometry binding assay; set-up: species or system human
Procedure: as §3, §4

SU.86.86 cells = test: Flow cytometry binding assay; set-up: species or system human
Procedure: as §3, §4

MCF-7 cells = test: Flow cytometry binding assay; set-up: species or system human
Procedure: as §3, §4

BT-549 cells = test: Flow cytometry binding assay; set-up: species or system human
Procedure: as §3, §4

OVCAR-3 cells = test: Flow cytometry binding assay; set-up: species or system human; conditions: OVCAR3
Procedure: as §3, §4

BxPC-3 cells = test: Flow cytometry binding assay; set-up: species or system human
Procedure: as §3, §4

TOV-21G cells = test: Flow cytometry binding assay; set-up: species or system human
Procedure: as §3, §4

Caov-4 cells = test: Flow cytometry binding assay; set-up: species or system human
Procedure: as §3, §4

ZR-75-1 cells = test: Flow cytometry binding assay; set-up: species or system human
Procedure: as §3, §4

PC-3 cells = test: Flow cytometry binding assay; set-up: species or system human
Procedure: as §3, §4

HeLa cells = test: Flow cytometry binding assay; set-up: species or system human; conditions: HeLa
Procedure: Cells were maintained in a 37° C., 5% CO2 humidified incubator.
as §4

B1: DS6-DM1: muDS6 antibody modified with SPP and conjugated to the maytansinoid DM1 (conjugate)
VH: QAYLQQSGAELVRSGASVKMSCKASGYTFTSYNMHWVKQTPGQGLEWIGYIYPGNGATNYNQKFKGKATLTADPSSSTAYMQISSLTSEDSAVYFCARGDSVPFAYWGQGTLVTVSA
VL: QIVLTQSPAIMSASPGEKVTITCSAHSSVSFMHWFQQKPGTSPKLWIYSTSSLASGVPARFGGSGSGTSYSLTISRMEAEDAATYYCQQRSSFPLTFGAGTKLELKR
- effect of conjugate on antigen negative cells [1]: only slightly affected
- sensitivity to the conjugate (pancreatic cell lines): None of the pancreatic cell lines appeared to have been affected
- sensitivity to the conjugate [2]: sensitive

B2: DS6: murine anti-CA6 monoclonal antibody DS6 (ATCC deposit number PTA-4449) (antibody, V domains shown)
VH: B1 VH
VL: B1 VL
- MMF (average maximum relative mean fluorescence) (SW1990 cells): 36.17
- MMF (average maximum relative mean fluorescence) (MDA-MB-231 cells): 31.85
- MMF (average maximum relative mean fluorescence) (MDA-MB-468 cells): 71.58
- MMF (average maximum relative mean fluorescence) (T98G cells): 35.94
- Kd (T98G cells; read-out: Apparent Kd): 0.178 nM
- MMF (average maximum relative mean fluorescence) (OVCAR5 cells): 97.10
- MMF (average maximum relative mean fluorescence) (HPAC cells): 2228.00
- MMF (maximum mean relative fluorescence) (KLE cells): 27.48
- antigen specific binding (SK-OV-3 cells; SK-OV-3, antigen negative cell line): no antigen specific binding
- MMF (maximum mean relative fluorescence) (SK-OV-3 cells; SKOV3): 17.53
- MMF (average maximum relative mean fluorescence) (BT-483 cells): 1911.00
- MMF (average maximum relative mean fluorescence) (Hs766T cells): 182.90
- MMF (average maximum relative mean fluorescence) (BT-20 cells): 232.20
- MMF (average maximum relative mean fluorescence) (MDA-MB-157 cells): 8.635
- MMF (average maximum relative mean fluorescence) (T-47D cells): 559.58
- antigen specific binding (Colo205 cells): no antigen specific binding
- MMF (average maximum relative mean fluorescence) (WISH cells): 1133.55
- MMF (average maximum relative mean fluorescence) (HPAF-II cells): 266.50
- MMF (average maximum relative mean fluorescence) (CAMA-1 cells): 12.46
- MMF (average maximum relative mean fluorescence) (SU.86.86 cells): 36.86
- MMF (average maximum relative mean fluorescence) (MCF-7 cells): 81.41
- MMF (average maximum relative mean fluorescence) (BT-549 cells): 71.39
- MMF (maximum mean relative fluorescence) (OVCAR-3 cells): 21.19
- MMF (average maximum relative mean fluorescence) (BxPC-3 cells): 79.99
- MMF (average maximum relative mean fluorescence) (TOV-21G cells): 87.79
- MMF (average maximum relative mean fluorescence) (Caov-4 cells): 149.00
- MMF (average maximum relative mean fluorescence) (ZR-75-1 cells): 811.67
- MMF (average maximum relative mean fluorescence) (PC-3 cells): 24.81
- MMF (average maximum relative mean fluorescence) (HeLa cells): 242.50
